Experimental data reported in the Human Domainome abundance scans (Beltran et al. 2025).
± gives the uncertainty stated by the source.

B1: Chromodomain-helicase-DNA-binding protein 5, residues 411 to 463; numbered along this chain, Q8TDI0 (parent)
chain: EEDDHMEFCRVCKDGGELLCCDACPSSYHLHCLNPPLPEIPNGEWLCPRCTCP

Variants of: B1
Test: abundance fitness (aPCA) (normalised: wild type 0, dead -1); higher = more abundant; growth selection in yeast, the domain comes from the species named
Settings: Homo sapiens
In the case of L37P, the abundance fitness is reported as -0.113 ± 0.077. In the case of L37Q, the abundance fitness is reported as -0.028 ± 0.1. For L37R, the abundance fitness was -0.006 ± 0.049. L37S gave an abundance fitness of 0.023 ± 0.074. In the case of L37T, the abundance fitness is reported as -0.005 ± 0.071. In the case of L37V, the abundance fitness is reported as -0.135 ± 0.079. Work on L37W yielded an abundance fitness of -0.109 ± 0.049. For L37Y, the abundance fitness was -0.109 ± 0.07. In the case of P38A, the abundance fitness is reported as 0.358 ± 0.22. Variant P38C has an abundance fitness of -0.63 ± 0.43. Work on P38F yielded an abundance fitness of -0.083 ± 0.21. Variant P38H has an abundance fitness of -0.016 ± 0.27. P38I showed an abundance fitness of -0.564 ± 0.29. In the case of P38L, the abundance fitness is reported as 0.263 ± 0.15. In the case of P38M, the abundance fitness is reported as -0.563 ± 0.44. For P38S, the abundance fitness was -0.13 ± 0.08. P38T gave an abundance fitness of -0.198 ± 0.31. In the case of P38Y, the abundance fitness is reported as 0.17 ± 0.19. For E39A, the abundance fitness was 0.006 ± 0.084. With E39C the abundance fitness was -0.438 ± 0.37. Work on E39D yielded an abundance fitness of -0.203 ± 0.14. In the case of E39F, the abundance fitness is reported as -0.235 ± 0.27. Work on E39G yielded an abundance fitness of -0.135 ± 0.092. In the case of E39H, the abundance fitness is reported as 0.098 ± 0.17. For E39I, the abundance fitness was -0.138 ± 0.23. Work on E39K yielded an abundance fitness of -0.104 ± 0.12. E39L gave an abundance fitness of -0.418 ± 0.13. With E39M the abundance fitness was -0.113 ± 0.22. E39N gave an abundance fitness of 0.116 ± 0.18. Variant E39P has an abundance fitness of 0.139 ± 0.12. E39Q showed an abundance fitness of 0.008 ± 0.19. Work on E39R yielded an abundance fitness of -0.301 ± 0.088. With E39S the abundance fitness was 0.091 ± 0.07. With E39T the abundance fitness was -0.209 ± 0.14. For E39V, the abundance fitness was 0.025 ± 0.068. With E39W the abundance fitness was -0.617 ± 0.24. In the case of E39Y, the abundance fitness is reported as -0.329 ± 0.37. Work on I40A yielded an abundance fitness of -0.206 ± 0.12. In the case of I40C, the abundance fitness is reported as 0.116 ± 0.1. I40D showed an abundance fitness of -0.534 ± 0.35. For I40E, the abundance fitness was -0.129 ± 0.11. Variant I40G has an abundance fitness of -0.09 ± 0.098. Work on I40H yielded an abundance fitness of -0.151 ± 0.24. For I40K, the abundance fitness was -0.104 ± 0.18. I40L showed an abundance fitness of 0.147 ± 0.086. For I40M, the abundance fitness was -0.112 ± 0.14. For I40N, the abundance fitness was 0.063 ± 0.14. In the case of I40P, the abundance fitness is reported as 0.052 ± 0.079. I40Q gave an abundance fitness of 0.132 ± 0.12. I40R showed an abundance fitness of -0.121 ± 0.097. I40S showed an abundance fitness of -0.058 ± 0.13. For I40T, the abundance fitness was 0.113 ± 0.13. Variant I40V has an abundance fitness of -0.027 ± 0.11. I40W showed an abundance fitness of -0.633 ± 0.39. For I40Y, the abundance fitness was -0.059 ± 0.33. For P41A, the abundance fitness was -0.144 ± 0.087. With P41D the abundance fitness was 0.246 ± 0.12. P41G showed an abundance fitness of 0.064 ± 0.078. With P41I the abundance fitness was -0.159 ± 0.14. In the case of P41L, the abundance fitness is reported as -0.019 ± 0.059. In the case of P41M, the abundance fitness is reported as -0.262 ± 0.091. For P41N, the abundance fitness was 0.168 ± 0.15. For P41Q, the abundance fitness was -0.051 ± 0.11. P41R gave an abundance fitness of -0.004 ± 0.045. Variant P41S has an abundance fitness of 0.047 ± 0.078. Variant P41T has an abundance fitness of 0.002 ± 0.073. Variant P41V has an abundance fitness of 0.043 ± 0.069. In the case of P41W, the abundance fitness is reported as -0.393 ± 0.11. With P41Y the abundance fitness was -0.043 ± 0.2. In the case of N42A, the abundance fitness is reported as 0.011 ± 0.068. Variant N42C has an abundance fitness of 0.033 ± 0.1. For N42D, the abundance fitness was -0.028 ± 0.049. With N42E the abundance fitness was -0.022 ± 0.071. For N42F, the abundance fitness was -0.266 ± 0.083. With N42G the abundance fitness was 0.12 ± 0.06. With N42H the abundance fitness was -0.054 ± 0.1. N42I gave an abundance fitness of -0.346 ± 0.19. Work on N42K yielded an abundance fitness of -0.144 ± 0.093. Work on N42M yielded an abundance fitness of -0.137 ± 0.088. In the case of N42P, the abundance fitness is reported as 0.16 ± 0.075. N42Q gave an abundance fitness of -0.211 ± 0.15. Work on N42R yielded an abundance fitness of -0.052 ± 0.075. For N42S, the abundance fitness was 0.058 ± 0.053. N42T gave an abundance fitness of 0.014 ± 0.065. N42W gave an abundance fitness of -0.142 ± 0.092. Work on N42Y yielded an abundance fitness of 0.059 ± 0.12. G43A showed an abundance fitness of 0.047 ± 0.076. G43C showed an abundance fitness of -0.112 ± 0.087. Work on G43D yielded an abundance fitness of -0.238 ± 0.11. Variant G43E has an abundance fitness of 0.003 ± 0.071. With G43F the abundance fitness was 0.149 ± 0.13. For G43H, the abundance fitness was -0.148 ± 0.1. For G43I, the abundance fitness was -0.392 ± 0.14. For G43K, the abundance fitness was -0.037 ± 0.12. In the case of G43L, the abundance fitness is reported as -0.152 ± 0.068. In the case of G43M, the abundance fitness is reported as -0.333 ± 0.2. Variant G43N has an abundance fitness of 0.039 ± 0.07. Work on G43P yielded an abundance fitness of -0.041 ± 0.047. With G43Q the abundance fitness was 0.039 ± 0.12. For G43R, the abundance fitness was -0.074 ± 0.08. Work on G43S yielded an abundance fitness of -0.008 ± 0.065. Work on G43T yielded an abundance fitness of -0.142 ± 0.09. With G43V the abundance fitness was 0.004 ± 0.066. Variant E44A has an abundance fitness of -0.095 ± 0.048. For E44C, the abundance fitness was -0.026 ± 0.068. For E44D, the abundance fitness was 0.051 ± 0.061. With E44F the abundance fitness was -0.361 ± 0.085. With E44G the abundance fitness was -0.027 ± 0.045. With E44H the abundance fitness was 0.056 ± 0.073. E44I gave an abundance fitness of -0.156 ± 0.1. E44K showed an abundance fitness of 0.102 ± 0.071. E44L showed an abundance fitness of -0.186 ± 0.058. In the case of E44M, the abundance fitness is reported as -0.312 ± 0.075. In the case of E44N, the abundance fitness is reported as -0.083 ± 0.09. For E44P, the abundance fitness was -0.071 ± 0.063. E44Q showed an abundance fitness of 0.041 ± 0.053. In the case of E44S, the abundance fitness is reported as 0.031 ± 0.059. Work on E44T yielded an abundance fitness of 0.02 ± 0.056. Work on E44V yielded an abundance fitness of -0.105 ± 0.04. E44Y gave an abundance fitness of -0.232 ± 0.081. W45A gave an abundance fitness of -0.45 ± 0.058. W45C gave an abundance fitness of -0.604 ± 0.1. Variant W45D has an abundance fitness of -0.761 ± 0.18. For W45E, the abundance fitness was -0.523 ± 0.083. With W45F the abundance fitness was -0.593 ± 0.2. With W45G the abundance fitness was -0.457 ± 0.045. For W45H, the abundance fitness was -0.512 ± 0.2. With W45I the abundance fitness was -0.667 ± 0.16. Work on W45L yielded an abundance fitness of -0.52 ± 0.047. W45M gave an abundance fitness of -0.491 ± 0.088. Work on W45P yielded an abundance fitness of -0.472 ± 0.067. W45Q showed an abundance fitness of -0.506 ± 0.061. W45R showed an abundance fitness of -0.449 ± 0.043. With W45S the abundance fitness was -0.459 ± 0.071. W45T gave an abundance fitness of -0.7 ± 0.082. W45V showed an abundance fitness of -0.579 ± 0.046. With W45Y the abundance fitness was -0.299 ± 0.1. With L46A the abundance fitness was -0.027 ± 0.07. Variant L46C has an abundance fitness of 0.088 ± 0.096. For L46D, the abundance fitness was -0.65 ± 0.19.
